Measurements: US20220356221A1 (ASKGENE PHARMA, published 2022)

Target: human IL-12 receptor on HEK-Blue IL-12 reporter cells (human, UniProt P42701 24-662; Q99665 24-862)
Experiment: cell-based or functional assay

Chain of human IL-12 receptor on HEK-Blue IL-12 reporter cells (Q99665 24-862, chain 2 of 2, other chains not shown): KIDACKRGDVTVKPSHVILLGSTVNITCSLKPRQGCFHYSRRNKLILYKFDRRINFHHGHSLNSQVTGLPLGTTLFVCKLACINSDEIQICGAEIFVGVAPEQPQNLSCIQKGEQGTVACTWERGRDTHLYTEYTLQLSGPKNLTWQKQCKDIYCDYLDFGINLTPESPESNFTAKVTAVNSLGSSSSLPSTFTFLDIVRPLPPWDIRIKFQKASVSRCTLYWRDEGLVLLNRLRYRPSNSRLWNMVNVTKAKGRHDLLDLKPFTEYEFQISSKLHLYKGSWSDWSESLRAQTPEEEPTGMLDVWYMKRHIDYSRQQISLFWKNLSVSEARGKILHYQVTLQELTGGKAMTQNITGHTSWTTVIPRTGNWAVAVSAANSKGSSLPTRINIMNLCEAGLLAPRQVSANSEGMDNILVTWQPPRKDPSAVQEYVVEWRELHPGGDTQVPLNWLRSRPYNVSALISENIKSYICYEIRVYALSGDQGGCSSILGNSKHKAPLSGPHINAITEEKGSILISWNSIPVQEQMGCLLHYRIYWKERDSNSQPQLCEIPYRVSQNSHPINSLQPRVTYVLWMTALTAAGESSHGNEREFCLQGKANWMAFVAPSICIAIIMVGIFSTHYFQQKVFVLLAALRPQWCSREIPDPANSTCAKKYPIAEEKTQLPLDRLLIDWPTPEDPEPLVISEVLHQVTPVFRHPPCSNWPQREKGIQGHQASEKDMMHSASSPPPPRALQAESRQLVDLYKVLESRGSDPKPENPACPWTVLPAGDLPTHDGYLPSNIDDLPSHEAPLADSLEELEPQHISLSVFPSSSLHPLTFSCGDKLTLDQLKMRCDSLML

EC50 in the cell-based IL-12 reporter assay (HEK-Blue IL-12, STAT4-inducible SEAP, OD630): ~0.05 nM | fold activation based on the EC50 values (after protease treatment against prior to it): ~18 fold
B1: IL-12 prodrug JR3.105.5 after protease treatment (activated) (Fc fusion)
chain: DKTHTCPPCPAPELLGGPSVFLFPPKPKDTLMISRTPEVTCVVVDVSHEDPEVKFNWYVDGVEVHNAKTKPREEQYASTYRVVSVLTVLHQDWLNGKEYKCKVSNKALPAPIEKTISKAKGQPREPQVYTLPPCRDELTKNQVSLWCLVKGFYPSDIAVEWESNGQPENNYKTTPPVLDSDGSFFLYSKLTVDKSRWQQGNVFSCSVMHEALHNHYTQKSLSLSPGAGGGGSGGGGSGGGGSIWELKKDVYVVELDWYPDAPGEMVVLTCDTPEEDGITWTLDQSSEVLGSGKTLTIQVKEFGDAGQYTCHKGGEVLSHSLLLLHKKEDGIWSTDILKDQKEPKNKTFLRCEAKNYSGRFTCWWLTTISTDLTFSVKSSRGSSDPQGVTCGAATLSAERVRGDNKEYEYSVECQEDSACPAAEESLPIEVMVDAVHKLKYENYTSSFFIRDIIKPDPPKNLQLKPLKNSRQVEVSWEYPDTWSTPHSYFSLTFCVQVQGKSKREKKDRVFTDKTSATVICRKNASISVRAQDRYYSSSWSEWASVPCSGGGGSGGGGSGGGGSRNLPVATPDPGMFPCLHHSQNLLRAVSNMLQKARQTLEFYPCTSEEIDHEDITKDKTSTVEACLPLELTKNESCLNSRETSFITNGSCLASRKTSFMMALCLSSIYEDLKMYQVEFKTMNAKLLMDPKRQIFLDQNMLAVIDELMQALNFNSETVPQKSSLEEPDFYKTKIKLCILLHAFRIRAVTIDRVMSYLNAS
